Results reported in publication PMC11893775.
Non-standard residues stand in square brackets, D forms with d. No end group written: not given here.

Experiments:
[1] = target: recombinant human furin lacking the trans-membrane domain and cytosolic tail (human) (UniProt P09958)
[2] = target: T1, recombinant kallikrein-8 (rKLK8) (UniProt O60259)
T1 sequence: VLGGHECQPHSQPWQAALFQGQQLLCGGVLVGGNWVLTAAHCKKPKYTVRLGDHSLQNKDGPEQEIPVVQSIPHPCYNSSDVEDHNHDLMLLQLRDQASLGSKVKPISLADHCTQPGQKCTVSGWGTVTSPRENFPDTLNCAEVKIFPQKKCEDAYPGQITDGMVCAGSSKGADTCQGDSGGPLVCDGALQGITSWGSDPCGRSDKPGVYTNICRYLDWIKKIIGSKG

Chain of UniProt P09958 (P09958 108-715): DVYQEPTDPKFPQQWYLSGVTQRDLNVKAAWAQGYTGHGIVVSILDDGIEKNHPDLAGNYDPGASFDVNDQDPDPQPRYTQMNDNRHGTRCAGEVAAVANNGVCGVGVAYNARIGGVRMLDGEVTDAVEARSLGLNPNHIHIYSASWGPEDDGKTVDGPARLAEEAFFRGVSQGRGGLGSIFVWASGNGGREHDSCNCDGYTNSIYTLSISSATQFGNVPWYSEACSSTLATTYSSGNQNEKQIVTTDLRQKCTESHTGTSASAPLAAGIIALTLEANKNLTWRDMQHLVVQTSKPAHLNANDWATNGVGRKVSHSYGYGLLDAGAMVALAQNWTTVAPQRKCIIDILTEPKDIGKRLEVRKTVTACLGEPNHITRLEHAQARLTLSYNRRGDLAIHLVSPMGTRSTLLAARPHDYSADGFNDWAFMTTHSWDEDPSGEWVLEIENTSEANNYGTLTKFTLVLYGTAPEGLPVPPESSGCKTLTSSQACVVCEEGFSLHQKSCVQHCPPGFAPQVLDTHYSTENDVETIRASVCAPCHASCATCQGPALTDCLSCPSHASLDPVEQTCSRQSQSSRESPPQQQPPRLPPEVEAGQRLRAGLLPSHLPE

IC50 of D6R for inhibition of the in vitro cleavage of the fluorogenic substrate Boc-RVRR-AMC by rFurin [1]: 0.78 µM
IC50 of D6R for inhibition of the in vitro cleavage of the fluorogenic substrate Boc-VPR-AMC by rKLK8 [2]: < 25 µM
B1: hexa-D-arginine (peptide)
peptide: [dR][dR][dR][dR][dR][dR]
